Test [1] has as its target full-length human CD36-Flag overexpressed on stable F293 cells (human, UniProt P16671 2-472). As to the kind of experiment: cell-based or functional assay.
For test [2], the target named is mouse CD36-His overexpressed on stable F293 cells (mouse, UniProt Q08857 1-472). As to the kind of experiment: cell-based or functional assay.
In test [3] the target is T1, Recombinant His-tagged human CD36.ECD protein (Sino Biological) (human, UniProt P16671 30-439).
T1 construct: Bought protein; also called hCD36.ECD; hCD36; not shown: His tag
T1 sequence (P16671 30-439 limits assumed): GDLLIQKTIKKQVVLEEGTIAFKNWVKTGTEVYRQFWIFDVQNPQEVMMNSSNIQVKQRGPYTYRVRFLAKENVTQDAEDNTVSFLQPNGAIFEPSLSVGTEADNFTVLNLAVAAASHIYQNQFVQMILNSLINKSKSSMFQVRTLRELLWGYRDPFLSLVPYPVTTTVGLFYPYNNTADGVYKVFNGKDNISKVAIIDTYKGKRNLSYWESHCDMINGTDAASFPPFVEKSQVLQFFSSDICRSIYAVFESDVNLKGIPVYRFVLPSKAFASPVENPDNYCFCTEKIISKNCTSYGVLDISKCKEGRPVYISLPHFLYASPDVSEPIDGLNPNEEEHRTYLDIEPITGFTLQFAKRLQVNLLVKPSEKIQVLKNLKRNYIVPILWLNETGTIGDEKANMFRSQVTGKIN
As to the kind of experiment: ELISA, coated human CD36.ECD (FIG. 1C). On the procedure:
(§1) ELISA materials and methods: Recombinant His-tagged human CD36.ECD protein or His-tagged mouse CD36.ECD protein (both from Sino Biological) was immobilized on 96 well microtiter plate at a concentration of 1 μg/mL in Coating Solution (SeraCare) overnight at 4° C. The wells were washed with wash solution (0.05% Tween20 in PBS) and blocked with 1% BSA in PBS. Serial dilutions of anti-CD36 antibodies were added to wells. After incubation at 37° C. for 1 h, the wells were washed with wash solution. Peroxidase-conjugated Goat anti-human kappa Light chain antibody (Sigma) was applied to each well at 37° C. for 1 h incubation. After washing, the wells were developed with TMB substrate for 5-10 min at room temperature and then stopped with 1 N HCl. Thereafter absorbance was measured at 450 nm and 650 nm. EC50 values were calculated through GraphPad Prism7.
(§2) ELISA data plots showing binding of anti-CD36 antibodies to recombinant human CD36.ECD or mouse CD36.ECD coated on ELISA plates are depicted in FIG. 1C and 1D, respectively.

Test [4] has as its target T2, Recombinant His-tagged mouse CD36.ECD protein (Sino Biological) (mouse, UniProt Q08857 30-439).
T2 construct: Bought protein; also called mCD36.ECD; mCD36; not shown: His tag
Briefly: ELISA, coated mouse CD36.ECD (FIG. 1D). Here is the method: as §1, §2

Test [5] deals with T1, Recombinant His-tagged human CD36.ECD …. As to the kind of experiment: ELISA, coated human CD36.ECD (FIG. 2A). Here is the method: as §1
The competitor anti-CD36 antibody ONA, which is derived from clone “ONA-0-v1” as disclosed in WO2021176424A1 in hIgG4-S228P-FALA format.

The target is the same in test [6]. As to the kind of experiment: ELISA, coated His-tagged human CD36.ECD. Here is the method:
as §1
(§3) Results: ELISA data plots showing binding to either human CD36.ECD or mouse CD36.ECD are depicted in FIG. 1A and FIG. 1B, respectively, for the full-length IgG anti-CD36 antibody 12P109, and additional positive clones, 12P102, 12P103, 12P104, 12P105, 12P106, 12P107, 12P110 and 12P212.

The target of test [7] is T2, Recombinant His-tagged mouse CD36.ECD …. As to the kind of experiment: ELISA, coated His-tagged mouse CD36.ECD. On the procedure: as §1, §3
For test [8], the target named is T1, Recombinant His-tagged human CD36.ECD …. Briefly: BLI (Octet), antibody on AHC sensor, His-tagged hCD36.ECD in solution, 1:1 fit. On the procedure: BLI assay materials and method: Kinetic rate constants, ka and kd, for binding of the anti-CD36 antibodies to human CD36 were measured by Bio-Layer Interferometry (BLI) (ForteBio Octet RED96). […] Rate constants were calculated by curve fitting analyses (1:1 Langmuir model) of binding response with a 2.5-minute association and 5-minute dissociation interaction time.

T2 sequence (Q08857 30-439 limits assumed): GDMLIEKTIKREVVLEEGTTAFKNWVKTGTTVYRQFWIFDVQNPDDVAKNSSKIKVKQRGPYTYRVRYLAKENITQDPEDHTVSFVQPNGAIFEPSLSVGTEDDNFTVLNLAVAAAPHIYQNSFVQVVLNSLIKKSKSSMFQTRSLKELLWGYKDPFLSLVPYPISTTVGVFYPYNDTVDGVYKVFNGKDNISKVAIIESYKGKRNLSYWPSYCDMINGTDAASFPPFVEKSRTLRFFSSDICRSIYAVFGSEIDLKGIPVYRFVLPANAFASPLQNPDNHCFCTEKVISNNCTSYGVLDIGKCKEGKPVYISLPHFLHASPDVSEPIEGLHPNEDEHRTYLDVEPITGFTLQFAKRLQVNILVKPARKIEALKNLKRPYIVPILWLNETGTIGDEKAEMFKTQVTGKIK
Chain of full-length human CD36-Flag overexpressed on stable F293 cells (P16671 2-472): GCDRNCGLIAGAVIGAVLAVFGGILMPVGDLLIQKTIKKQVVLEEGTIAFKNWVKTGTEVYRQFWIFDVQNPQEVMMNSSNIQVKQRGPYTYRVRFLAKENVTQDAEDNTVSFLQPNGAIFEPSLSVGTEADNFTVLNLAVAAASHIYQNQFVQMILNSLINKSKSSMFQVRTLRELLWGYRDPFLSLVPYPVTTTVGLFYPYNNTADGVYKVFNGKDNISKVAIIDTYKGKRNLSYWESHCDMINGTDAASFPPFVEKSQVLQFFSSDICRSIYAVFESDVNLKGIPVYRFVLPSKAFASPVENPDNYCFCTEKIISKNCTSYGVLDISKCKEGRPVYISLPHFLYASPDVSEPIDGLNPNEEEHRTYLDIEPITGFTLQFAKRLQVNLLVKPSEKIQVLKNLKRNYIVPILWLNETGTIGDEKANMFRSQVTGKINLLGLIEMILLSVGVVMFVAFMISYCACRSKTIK
Chain of mouse CD36-His overexpressed on stable F293 cells (Q08857 whole entry, the tested form may be a part): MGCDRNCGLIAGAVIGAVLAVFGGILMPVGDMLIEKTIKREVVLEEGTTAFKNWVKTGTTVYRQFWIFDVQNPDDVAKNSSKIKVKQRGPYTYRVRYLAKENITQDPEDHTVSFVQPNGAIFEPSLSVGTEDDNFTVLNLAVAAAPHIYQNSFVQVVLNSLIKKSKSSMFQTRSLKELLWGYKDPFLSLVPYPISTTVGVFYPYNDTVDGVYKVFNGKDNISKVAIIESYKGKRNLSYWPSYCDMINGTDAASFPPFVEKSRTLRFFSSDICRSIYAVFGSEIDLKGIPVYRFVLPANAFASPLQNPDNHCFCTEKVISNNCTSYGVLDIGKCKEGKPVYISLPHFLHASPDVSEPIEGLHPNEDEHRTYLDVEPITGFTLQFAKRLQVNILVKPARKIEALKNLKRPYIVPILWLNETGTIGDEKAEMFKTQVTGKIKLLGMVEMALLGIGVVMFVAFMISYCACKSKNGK

B1: 12P109 (antibody, human IgG1, kappa, N297A, V domains shown)
VH: EVQLVESGGGLVQPGGSLRLSCAASGFTISSFGIHWVRQAPGKGLEWVAWIAPYGGYTYYADSVKGRFTISADTSKNTAYLQMNSLRAEDTAVYYCARSFFGYFDYWGQGTLVTVSS
VL: DIQMTQSPSSLSASVGDRVTITCRASQDVSNWVAWYQQKPGKAPKLLISTSTSLYSGVPSRFSGSGSGTDFTLTISSLQPEDFATYYCQQYYTLPFTFGQGTKVEIKR
notes: Full-length human IgG1-N297A, kappa; also called 12P109 (IgG1)
As for B1, in test [1], the “oxLDL uptake IC50 (nM), F293/hCD36” value is 0.401 nM. Besides, the “oxLDL uptake IC50 (nM), F293/mCD36” value in test [2] was 0.86 nM. Also, the EC50 in test [3] is 43.2 nM; in test [4] it was 9.45 nM; in test [5], 1.53 nM; in test [6] it was 0.213 nM; in test [7] it was 0.137 nM. In test [8], the Kd came out at 18.5 nM. Moreover, in test [8], the koff was found to be 0.00963 s⁻¹. Further, the on-rate (kon) in test [8] is 522000 M⁻¹ s⁻¹.

For the origin of these results see patent publication US20250206837A1 (ELIXIRON IMMUNOTHERAPEUTICS HONG KONG, published 2025).
